Assay results reported in paper PMC5058624.

Molecular target: recombinant LukG monomer (TCH1516) (Staphylococcus aureus strain TCH1516 (USA300 CA-MRSA))
Assay: BLI

Chain of recombinant LukG monomer (TCH1516) (Staphylococcus aureus strain TCH1516 (USA300 CA-MRSA)) (P21224 30-338 limits assumed): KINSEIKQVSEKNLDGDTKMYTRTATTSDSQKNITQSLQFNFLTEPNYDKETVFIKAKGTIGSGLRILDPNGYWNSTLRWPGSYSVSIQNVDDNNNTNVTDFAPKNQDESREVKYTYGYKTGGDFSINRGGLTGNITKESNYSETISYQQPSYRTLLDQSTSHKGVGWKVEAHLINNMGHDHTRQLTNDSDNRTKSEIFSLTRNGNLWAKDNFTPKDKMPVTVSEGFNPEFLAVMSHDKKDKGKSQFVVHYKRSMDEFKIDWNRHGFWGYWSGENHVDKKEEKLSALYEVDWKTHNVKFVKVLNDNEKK

recombinant LukH monomer (TCH1516) (natural protein)
stoichiometry N (molar ratio of the 2 monomers): 1
